Patent US7118902

B1: furin-processed construct H (truncated ADAMTS4 active-site mutant without the spacer domain, C-terminal FLAG tag) (protein)
chain: FASLSRFVETLVVADDKMAAFHGAGLKRYLLTVMAAAAKAFKHPSIRNPVSLVVTRLVILGSGEEGPQVGPSAAQTLRSFCAWQRGLNTPEDSDPDHFDTAILFTRQDLCGVSTCDTLGMADVGTVCDPARSCAIVEDDGLQSAFTAAHQLGHVFNMLHDNSKPCISLNGPLSTSRHVMAPVMAHVDPEEPWSPCSARFITDFLDNGYGHCLLDKPEAPLHLPVTFPGKDYDADRQCQLTFGPDSRHCPQLPPPCAALWCSGHLNGHAMCQTKHSPWADGTPCGPAQACMGGRCLHMDQLQDFNIPQAGGWGPWGPWGDCSRTCGGGVQFSSRDCTRPVPRNGGKYCEGRRTRFRSCNTEDCPVDYKDDDDK
B2: furin-processed construct I (truncated ADAMTS4 active-site mutant without the spacer and the TSP-1 domain, C-terminal FLAG tag) (protein)
chain: FASLSRFVETLVVADDKMAAFHGAGLKRYLLTVMAAAAKAFKHPSIRNPVSLVVTRLVILGSGEEGPQVGPSAAQTLRSFCAWQRGLNTPEDSDPDHFDTAILFTRQDLCGVSTCDTLGMADVGTVCDPARSCAIVEDDGLQSAFTAAHQLGHVFNMLHDNSKPCISLNGPLSTSRHVMAPVMAHVDPEEPWSPCSARFITDFLDNGYGHCLLDKPEAPLHLPVTFPGKDYDADRQCQLTFGPDSRHCPQLPPPCAALWCSGHLNGHAMCQTKHSPWADGTPCGPAQACMGGRCLHMDQLQDFNIPQAVDYKDDDDK
B3: furin-processed mature protein of construct D (protein)
chain: FASLSRFVETLVVADDKMAAFHGAGLKRYLLTVMAAAAKAFKHPSIRNPVSLVVTRLVILGSGEEGPQVGPSAAQTLRSFCAWQRGLNTPEDSDPDHFDTAILFTRQDLCGVSTCDTLGMADVGTVCDPARSCAIVEDDGLQSAFTAAHELGHVFNMLHDNSKPCISLNGPLSTSRHVMAPVMAHVDPEEPWSPCSARFITDFLDNGYGHCLLDKPEAPLHLPVTFPGKDYDADRQCQLTFGPDSRHCPQLPPPCAALWCSGHLNGHAMCQTKHSPWADGTPCGPAQACMGGRCLHMDQLQDFNIPQAGGWGPWGPWGDCSRTCGGGVQFSSRDCTRPVPRNGGKYCEGRRTRFRSCNTEDCPTGSALTFREEQCAAYNHRTDLFKSFPGPMDWVPRYTGVAPQDQCKLTCQARALGYYYVLEPRVVDGTPCSPDSSSVCVQGRCIHAGCDRIIGSKKKFDKCMVCGGDGSGCS
B4: furin-processed protein of construct B (truncated ADAMTS4, catalytic domain with His tag) (protein)
chain: FASLSRFVETLVVADDKMAAFHGAGLKRYLLTVMAAAAKAFKHPSIRNPVSLVVTRLVILGSGEEGPQVGPSAAQTLRSFCAWQRGLNTPEDSDPDHFDTAILFTRQDLCGVSTCDTLGMADVGTVCDPARSCAIVEDDGLQSAFTAAHELGHVFNMLHDNSKPCISLNGPLSTSRHVMAPVMAHVDPEEPWSPCSARFITDFLDNGYGHCLLDKPEHHHHHH
B5: mature protein of construct G (full-length ADAMTS4 active-site mutant E362Q with FLAG tag) (protein)
chain: FASLSRFVETLVVADDKMAAFHGAGLKRYLLTVMAAAAKAFKHPSIRNPVSLVVTRLVILGSGEEGPQVGPSAAQTLRSFCAWQRGLNTPEDSDPDHFDTAILFTRQDLCGVSTCDTLGMADVGTVCDPARSCAIVEDDGLQSAFTAAHQLGHVFNMLHDNSKPCISLNGPLSTSRHVMAPVMAHVDPEEPWSPCSARFITDFLDNGYGHCLLDKPEAPLHLPVTFPGKDYDADRQCQLTFGPDSRHCPQLPPPCAALWCSGHLNGHAMCQTKHSPWADGTPCGPAQACMGGRCLHMDQLQDFNIPQAGGWGPWGPWGDCSRTCGGGVQFSSRDCTRPVPRNGGKYCEGRRTRFRSCNTEDCPTGSALTFREEQCAAYNHRTDLFKSFPGPMDWVPRYTGVAPQDQCKLTCQARALGYYYVLEPRVVDGTPCSPDSSSVCVQGRCIHAGCDRIIGSKKKFDKCMVCGGDGSGCSKQSGSFRKFRYGYNNVVTIPAGATHILVRQQGNPGHRSIYLALKLPDGSYALNGEYTLMPSPTDVVLPGAVSLRYSGATAASETLSGHGPLAQPLTLQVLVAGNPQDTRLRYSFFVPRPTPSTPRPTPQDWLHRRAQILEILRRRPWAGRKVDYKDDDDK
B6: ADAMTS4(p40), auto-digested isoform of human ADAMTS4 (protein)
chain: FASLSRFVETLVVADDKMAAFHGAGLKRYLLTVMAAAAKAFKHPSIRNPVSLVVTRLVILGSGEEGPQVGPSAAQTLRSFCAWQRGLNTPEDSDPDHFDTAILFTRQDLCGVSTCDTLGMADVGTVCDPARSCAIVEDDGLQSAFTAAHELGHVFNMLHDNSKPCISLNGPLSTSRHVMAPVMAHVDPEEPWSPCSARFITDFLDNGYGHCLLDKPEAPLHLPVTFPGKDYDADRQCQLTFGPDSRHCPQLPPPCAALWCSGHLNGHAMCQTKHSPWADGTPCGPAQACMGGRCLHMDQLQDFNIPQAGGWGPWGPWGDCSRTCGGGVQFSSRDCTRPVPRNGGKYCEGRRTRFRSCNTEDCPTGSALT
B7: ADAMTS4(p53), auto-digested isoform of human ADAMTS4 (protein)
chain: FASLSRFVETLVVADDKMAAFHGAGLKRYLLTVMAAAAKAFKHPSIRNPVSLVVTRLVILGSGEEGPQVGPSAAQTLRSFCAWQRGLNTPEDSDPDHFDTAILFTRQDLCGVSTCDTLGMADVGTVCDPARSCAIVEDDGLQSAFTAAHELGHVFNMLHDNSKPCISLNGPLSTSRHVMAPVMAHVDPEEPWSPCSARFITDFLDNGYGHCLLDKPEAPLHLPVTFPGKDYDADRQCQLTFGPDSRHCPQLPPPCAALWCSGHLNGHAMCQTKHSPWADGTPCGPAQACMGGRCLHMDQLQDFNIPQAGGWGPWGPWGDCSRTCGGGVQFSSRDCTRPVPRNGGKYCEGRRTRFRSCNTEDCPTGSALTFREEQCAAYNHRTDLFKSFPGPMDWVPRYTGVAPQDQCKLTCQARALGYYYVLEPRVVDGTPCSPDSSSVCVQGRCIHAGCDRIIGSKKKFDKCMVCGGDGSGCSKQSGSFRK
B8: furin-processed mature protein of construct C (protein)
chain: FASLSRFVETLVVADDKMAAFHGAGLKRYLLTVMAAAAKAFKHPSIRNPVSLVVTRLVILGSGEEGPQVGPSAAQTLRSFCAWQRGLNTPEDSDPDHFDTAILFTRQDLCGVSTCDTLGMADVGTVCDPARSCAIVEDDGLQSAFTAAHELGHVFNMLHDNSKPCISLNGPLSTSRHVMAPVMAHVDPEEPWSPCSARFITDFLDNGYGHCLLDKPEAPLHLPVTFPGKDYDADRQCQLTFGPDSRHCPQLPPPCAALWCSGHLNGHAMCQTKHSPWADGTPCGPAQACMGGRCLHMDQLQDFNIPQAGGWGPWGPWGDCSRTCGGGVQFSSRDCTRPVPRNGGKYCEGRRTRFRSCNTEDCPTGSALTFREEQCAAYNHRTDLFKSFPGPMDWVPRYTGVAPQDQCKLTCQARALGYYYVLEPRVVDGTPCSPDSSSVCVQGRCIHAGCDRIIGSKKKFDKCMVCGGDGSGCSGSAWSHPQFEK

Target: bovine articular cartilage aggrecan, P13608
Sequence (P13608 17-2364): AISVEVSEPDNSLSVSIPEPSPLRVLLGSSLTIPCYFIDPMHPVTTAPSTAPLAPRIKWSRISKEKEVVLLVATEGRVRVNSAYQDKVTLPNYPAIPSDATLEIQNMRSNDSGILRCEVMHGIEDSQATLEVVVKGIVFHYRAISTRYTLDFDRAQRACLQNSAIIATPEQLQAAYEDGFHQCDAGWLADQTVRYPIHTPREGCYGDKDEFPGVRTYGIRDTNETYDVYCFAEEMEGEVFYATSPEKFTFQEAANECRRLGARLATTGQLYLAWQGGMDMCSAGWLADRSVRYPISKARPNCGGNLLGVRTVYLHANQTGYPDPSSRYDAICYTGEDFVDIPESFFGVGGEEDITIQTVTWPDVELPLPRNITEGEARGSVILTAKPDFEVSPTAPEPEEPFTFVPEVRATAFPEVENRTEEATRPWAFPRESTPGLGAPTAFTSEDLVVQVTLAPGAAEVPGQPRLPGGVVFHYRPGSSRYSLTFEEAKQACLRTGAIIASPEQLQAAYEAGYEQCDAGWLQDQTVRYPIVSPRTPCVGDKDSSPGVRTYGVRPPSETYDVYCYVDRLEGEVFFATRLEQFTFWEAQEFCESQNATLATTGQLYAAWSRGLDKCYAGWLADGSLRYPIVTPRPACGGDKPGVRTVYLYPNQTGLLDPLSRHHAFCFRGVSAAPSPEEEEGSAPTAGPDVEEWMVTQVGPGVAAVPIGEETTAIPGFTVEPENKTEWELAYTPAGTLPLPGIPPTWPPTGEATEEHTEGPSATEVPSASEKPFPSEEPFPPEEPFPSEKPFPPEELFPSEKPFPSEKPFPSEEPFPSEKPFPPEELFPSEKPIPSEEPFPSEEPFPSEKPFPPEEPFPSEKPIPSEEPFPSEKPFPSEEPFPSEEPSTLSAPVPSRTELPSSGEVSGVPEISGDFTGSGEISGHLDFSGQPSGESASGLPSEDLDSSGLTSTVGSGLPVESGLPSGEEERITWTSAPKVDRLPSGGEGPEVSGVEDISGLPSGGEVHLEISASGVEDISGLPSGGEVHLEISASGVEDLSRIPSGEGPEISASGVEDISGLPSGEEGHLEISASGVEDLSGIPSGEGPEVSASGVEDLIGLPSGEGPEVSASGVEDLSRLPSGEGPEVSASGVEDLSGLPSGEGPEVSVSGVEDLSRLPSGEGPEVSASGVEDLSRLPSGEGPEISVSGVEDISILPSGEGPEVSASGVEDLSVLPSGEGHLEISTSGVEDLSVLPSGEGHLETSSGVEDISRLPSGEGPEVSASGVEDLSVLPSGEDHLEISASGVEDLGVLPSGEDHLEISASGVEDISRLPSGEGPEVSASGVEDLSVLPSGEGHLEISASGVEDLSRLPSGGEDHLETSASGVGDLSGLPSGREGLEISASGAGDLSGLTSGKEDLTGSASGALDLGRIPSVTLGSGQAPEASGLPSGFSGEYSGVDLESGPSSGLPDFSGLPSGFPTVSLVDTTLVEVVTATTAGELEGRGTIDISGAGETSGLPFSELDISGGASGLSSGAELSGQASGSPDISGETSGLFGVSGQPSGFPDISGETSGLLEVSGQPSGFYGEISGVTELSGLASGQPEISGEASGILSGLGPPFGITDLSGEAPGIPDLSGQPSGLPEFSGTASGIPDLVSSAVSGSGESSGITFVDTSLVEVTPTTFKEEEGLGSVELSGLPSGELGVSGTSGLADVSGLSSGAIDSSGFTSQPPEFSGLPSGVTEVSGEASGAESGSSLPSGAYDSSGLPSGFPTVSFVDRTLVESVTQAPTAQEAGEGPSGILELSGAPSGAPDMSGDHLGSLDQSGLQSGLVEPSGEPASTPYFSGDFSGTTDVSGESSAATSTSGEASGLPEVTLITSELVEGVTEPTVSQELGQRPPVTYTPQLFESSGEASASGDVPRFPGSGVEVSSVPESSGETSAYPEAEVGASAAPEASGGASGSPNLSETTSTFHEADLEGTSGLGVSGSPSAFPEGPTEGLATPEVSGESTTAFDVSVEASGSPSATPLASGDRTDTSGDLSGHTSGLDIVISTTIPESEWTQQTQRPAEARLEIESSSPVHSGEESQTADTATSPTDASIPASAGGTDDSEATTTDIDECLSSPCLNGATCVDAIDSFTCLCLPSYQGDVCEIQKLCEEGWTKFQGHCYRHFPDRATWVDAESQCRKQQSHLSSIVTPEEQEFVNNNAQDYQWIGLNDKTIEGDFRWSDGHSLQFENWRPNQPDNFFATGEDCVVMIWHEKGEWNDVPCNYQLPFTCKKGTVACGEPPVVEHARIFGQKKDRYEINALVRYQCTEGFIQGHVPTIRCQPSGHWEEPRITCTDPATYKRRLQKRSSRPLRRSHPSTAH

| Protein | aggrecanase activity | further results |
| --- | --- | --- |
| B1 | Furin-processed construct H (SEQ ID NO:51) and construct I (SEQ ID NO:52) lack aggrecanase activity |  |
| B2 | Furin-processed construct H (SEQ ID NO:51) and construct I (SEQ ID NO:52) lack aggrecanase activity |  |
| B3 | The furin-processed mature proteins of construct C and D (SEQ ID NOS:47 and 48, respectively) have aggrecanase activity |  |
| B4 |  | enzymatic (aggrecanase) activity: The furin-processed protein from this construct is enzymatically inactive (SEQ ID NO:46) |
| B5 | The E362Q mutation abolished the aggrecanase activity of the mature protein (SEQ ID NO:50) of construct G |  |
| B6 |  | aggrecanase activity (Western blot with MAb BC-3 for the 374ARGXX neoepitope): both isoforms have aggrecanase activity |
| B7 |  | aggrecanase activity (Western blot with MAb BC-3 for the 374ARGXX neoepitope): both isoforms have aggrecanase activity |
| B8 | The furin-processed mature proteins of construct C and D (SEQ ID NOS:47 and 48, respectively) have aggrecanase activity |  |
